Test results from PMC2570039 (Molecular cell, 2008).

B1: Seleno-methionine-substituted Pseudomonas aeruginosa FtsK γ-domain (GGS-742-811) (domain or fragment)
chain: GGSEGSEDDPLYDEAVRFVTESRRASISAVQRKLKIGYNRAARMIEAMEMAGVVTPMNTNGSREVIAPAPVRD
modifications: seleno-methionine-substituted

What was measured:
[1] = target: FtsK50C (50 amino acids from FtsKN fused to FtsKC) (E. coli); experiment: […]
[2] = target: FtsK50C (50 amino acids from FtsKN fused to FtsKC) (E. coli); experiment: SEC
crystal structure = target: the molecule itself; experiment: crystal structure

| Molecule | stoichiometry N [1] | stoichiometry N [2] | binding result (crystal structure) |
| --- | --- | --- | --- |
| FtsK50C (50 amino acids from FtsKN fused to FtsKC) (domain or fragment) | 6 | 6 | – |
| B1 | – | – | binds |
